Source: the supplement of paper PMC10567573

B1: HSP90AB1 (parent)
chain: YHTSQSGDEMTSLSEYVSRMKETQ
B2: INTS3 (parent)
chain: EEITEESLEESVGKPLYLIFRNLC

Variants of: B1
Assay: protein stability index of a GFP-peptide fusion (GPS, HEK-293T) (PSI 1-6); higher = more stable
Conditions: c terminus: a fixed tail appended
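Further: lentivirally expressed fusions sorted by FACS into six bins by GFP to DsRed ratio, PSI derived from sequencing read proportions per bin multiplied by bin number.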

Protein stability index of substitutions, site by site:
T3: M 3.12, H 3.67, I 3.18, K 3.48, W 1.53, P 2.81, C 3.22, A 3.26, Q 3.66, D 4.53, E 3.07, N 3.42, V 2.96, S 3.58, G 3.41, R 3.8, F 2.96
S12: N 3.64, I 2.92, H 3.52, W 2.6, T 3.88, C 2.87, G 3.75, P 3.52, Y 2.81, E 4.28, F 2.98, Q 3.36, K 3.12, D 4.14, V 2.99, A 3.21, L 2.49
L13: N 4.34, Y 3.38, M 4.04, G 4.27, R 4.21, K 3.82, E 4.62, T 4.25, S 3.68, V 3.32, P 3.74, F 2.18, C 3.52, D 4.11, A 4.37, I 3.5, H 3.88, Q 4.59
Y1: F 3.68, K 4.29, M 4.06, V 4.81, I 4.49, H 4.97, D 4.48, G 4.26, W 4.2, T 5.02, L 4.84, N 4.77, Q 4.61, E 4.97, S 4.67, A 4.7, P 5.09, C 4.49, R 4.14
H2: G 4.62, F 4.26, E 4.56, Y 3.15, V 2.83, S 4.42, K 4.66, N 3.92, W 3.52, D 4.45, A 2.87, L 4.15, Q 3.94, T 4.67, C 3.57, M 3.61, I 3.46, P 5
E9: Q 3.43, C 2.48, T 3.66, I 2.77, A 2.78, R 1.99, L 2.09, M 2.52, W 1.87, P 3.51, S 2.91, Y 2.58, G 3.67, D 3.79, F 2.33, H 3.11, V 3.12
G7: H 3.65, C 3.33, S 3.67, W 2.99, N 2.83, P 3.74, F 3.17, E 4.12, T 4.32, R 3.44, Q 3.78, Y 2.98, M 3.47, D 4.08, V 3.26, K 3.33, A 3.73, L 3.61, I 3.29
S6: C 3.22, V 3.21, F 2.54, N 4.08, D 4.53, K 3.03, G 3.75, T 3.46, Q 2.83, E 4.15, W 1.88, L 3.26, A 3.54, I 2.98, H 2.91, P 3.02, Y 2.06, R 3.56
D8: A 3.53, P 3, K 3.24, V 3.47, G 2.89, F 3.44, W 2.17, I 2.32, H 2.92, T 3.24, L 3.31, N 3.33, C 2.58, Q 3.69, S 3.77, Y 2.26, E 4.24
M10: D 4.68, N 4.17, K 4.04, V 3.74, A 4.01, S 3.87, P 4.17, I 4.08, Y 3.2, T 3.73, W 2.12, G 4.1, L 3.32, R 3.9, C 4.05, H 3.46, F 3.06, E 4.54, Q 4.05
S4: L 2.48, G 3.02, A 3.86, M 3.61, T 3.99, Y 2.21, D 3.49, Q 3.34, N 3.39, W 1.96, H 3.38, K 2.07, E 4.38, I 2.51, V 3.12, C 3.56
T11: N 3.56, F 2.78, P 3.57, H 3.64, S 3.62, Y 2.74, R 3.53, D 3.81, I 3.12, M 3.07, C 3.62, A 3.51, E 3.9, L 3.35, K 4.58, V 3.68, W 2.01, G 3.77
S14: G 3.78, D 2.96, F 3.05, K 3.5, P 3.74, M 3.25, R 3.57, L 2.65, Q 3.54, N 3.24, E 4.31, A 3.66, C 3.44
Q5: H 3.67, M 3.67, L 2.83, D 4.45, G 3.84, P 3.34, N 3.39, E 3.79, C 3.17, R 3, F 2.35, S 3.55, A 3.66, Y 3.21, W 1.98, I 2.64, T 3.91

Variants of: B2
Assay: as above
Conditions: c terminus: a fixed tail appended

Protein stability index, by site and new letter:
C24: R 3.02, V 1.68, D 3.48, P 2.62, K 3.11, Y 2.32, L 2.16, G 2.54, S 2.55, Q 2.19, E 3.54, H 2.88, T 2.66, A 2.87, I 2.32, W 2.08, N 3.33, M 2.7, F 2.99
R21: D 3.46, S 2.95, M 2.1, P 3.53, I 1.63, H 3.08, K 2.61, C 2.62, A 2.77, F 2.03, Q 2.77, W 2.1, E 2.64, L 1.9, Y 2.03, V 2.09, T 2.61, N 2.96, G 3.1
N22: C 2.83, F 2.94, V 1.55, M 2.33, Y 2.06, K 2.56, H 2.64, L 3.01, R 2.96, T 2.15, I 2.05, E 2.8, S 2.79, Q 2.42, P 2.54, W 1.68, A 2.26, G 2.19, D 3.4
L23: I 2.63, V 3.39, W 2.85, N 3.47, Q 4.17, M 2.74, S 3.67, Y 2.68, G 3.62, T 3.4, R 3.47, P 3.82, K 4.52, D 3.75, C 3.54, H 3.19, A 3.74, F 3.14, E 3.98
F20: M 3.1, W 2.35, K 4.46, N 4.33, G 4.07, S 3.77, T 3.6, R 4.23, H 3.46, I 2.88, L 2.37, P 4.07, V 2.55, Y 2.71, Q 3.97
